Experimental data reported in patent US7700353B2, “Compositions and methods for inducing apoptosis in tumor cells” (E-P Therapeutics, Inc., priority 1998, dated 2010).

Experiments:
Type in all cases: cell-based, human
MDA-MB-231 cells = assay: Soft agar colony formation of Ea-4 cDNA transfectants; conditions: cells transfected with Ea-4-peptide cDNA (clones E9 and E15)
Description: Two gene constructs, CMV-IGF-1-sp-Ea-4-cDNA-IRES-EGFP and CMV-IRES-EGFP were used in the transfection studies. The first construct (FIG. 9A) contained Ea-4 peptide cDNA (with a signal peptide sequence derived from hlGF-I), a ribosome re-entry site (IRES) and an enhanced green fluorescence protein (EGFP) marker gene. […] The expression of both gene constructs was driven by a promoter from CMV. Vectors containing the recognized control sequences and marker gene are available from commercial sources (CLONTECH, Palo Alto, Calif.).
Transfection of the cells was accomplished as follows. MDA-MB-231 cells were cultured in F12/DMEM supplemented with 10% FBS and 10 ng/ml of insulin to 90% confluence. About 5×10^6 cells were harvested and resuspended in 1 mL of serum-free F12/DMEM containing 20 µg of un-linearized constructs. The cells were electroporated in a BRL Cell-Porator using the following settings: low .OMEGA., 1180 micro Faraday (µF) capacitance, and two pulses at 200 volts. Following electroporation, cells were resuspended in 12 mL of fresh growth medium and seeded into a 6-well plate to recover. Permanent transfectants expressing green fluorescence protein (GFP) were enriched in a medium containing neomycin (G418) at 1 mg/mL for ten days and followed with 500 µg/mL for continuous maintenance. […]

MDA-MB-231 (C) cells = assay: Apoptosis observed under microscope; conditions: about 1.5 μM, about two hours
Description: FIG. 21 depicts apoptosis in MDA-MB-231 cells induced by rtEa4-peptide. MDA-MB-231 cells treated with about 1.5 μM of rtEa4-peptide (A, B, and C) or control peptide (D) for about two hours and observed under a microscope. Arrows indicate apoptotic cells.
Killing of cancer cells by E-peptide could be the consequence of apoptosis or necrosis. To differentiate these two possibilities, MDA-MB-231 (C) cells were grown in culture in the presence of about 1.5 μM of trout Ea4-peptide. After about two hours of incubation the cells were observed under a microscope. […] FIG. 22 presents the results of the effect of trout Ea4-peptide on induction of apoptosis in ovarian cancer cells (SKOV-3).

293GP cells = assay: Cell attachment assay; conditions: 0.8 μM, serum-free medium, four days, after shaking
Description: To confirm whether treatment of transformed cells with the Ea-4 peptide could result in increased attachment of the cells to the culture dish, 293GP cells were cultured in a serum-free basal medium supplemented with Ea-4-peptide (0.8 µM) or 10% FBS, respectively, in 6-well culture chambers. After four days, the culture medium was removed, and cells were rinsed twice with PBS containing 0.02% EDTA, fresh PBS was added, and the culture plates shaken 20 times manually.

B1: rtEa-4: recombinant Ea-4 peptide of rainbow trout pro-IGF-I, 74 amino acid residues (SEQ ID NO: 2) (protein)
chain: RSVRAQRHTDMPRTPKVSTAVQNVDRGTERRTAQHPDKTKTKKKPLSGHSHPSCKEVHQKNSSRGNTGGRNYRM
modifications: Oncorhynchus mykiss
- colony formation activity (MDA-MB-231 cells): abolished
- apoptosis (microscopy) (MDA-MB-231 (C) cells): going through apoptosis
- attachment of cells to the culture chamber (293GP cells): remained attached to the culture chamber
